According to paper doi:10.1101/2024.06.26.600898 (bioRxiv, 2024):

Molecular target: H3(1-282)-strep tag Ⅱ-NGL (monkeypox virus (MPXV))
Experiment: BLI; […]; PBS; 100 s association, 120 s dissociation; global fit
Conditions: both partners purified

B1: AI-Poxblock723-strep tag Ⅱ-His8 (designed binder)
chain: MGLKKLQELKKKANELGKKAKEALDKGDFEKAKEYIKKGAEATKEYGELSGNKAAIEDGEKAEEVAEEIVKIAKEEKAKERSGGGGSGGGGS
notes: source: E. coli BL21(DE3), pET30a, purified (STarm Streptactin), exchanged into PBS
B1 showed a Kd of 9 µM.
